{"source": "patent US20260132190A1", "about": "(Eli Lilly, published 2026)", "binders": {"B1": {"name": "Antibody 1 (antibody, human IgG4 S228P, kappa, F234A L235A, V domains shown)", "VH": "EVQLLESGGGLVQPGGSLRLSCAASGFAFSSYRMSWVRQAPGKGLEWVSAISASGGKTYYADSVKGRFTISRDNSKNTLYLQMNSLRAEDTAVYYCAKRGYIWHAFDLWGRGTLVTVSS", "VL": "EIVLTQSPGTLSLSPGERATLSCRASQSVYSSYLAWYQQKPGQAPRLLIYGASSRATGIPDRFSGSGSGTDFTLTISRLEPEDFAVYYCQVVGSSPPFTFGGGTKVEIKR", "notes": "Human anti-IL-34 antibody with IgG4 PAA hinge/Fc and kappa light chain; also called Exemplified Antibody 1; exemplified antibody 1"}}, "key": {"human IL-34 [1]": {"target": "T1, human IL-34 (human, UniProt Q6ZMJ4 21-242)", "T1 construct": "It was biotinylated in the CSF1R displacement ELISA; also called hIL-34; h IL-34", "T1 sequence": "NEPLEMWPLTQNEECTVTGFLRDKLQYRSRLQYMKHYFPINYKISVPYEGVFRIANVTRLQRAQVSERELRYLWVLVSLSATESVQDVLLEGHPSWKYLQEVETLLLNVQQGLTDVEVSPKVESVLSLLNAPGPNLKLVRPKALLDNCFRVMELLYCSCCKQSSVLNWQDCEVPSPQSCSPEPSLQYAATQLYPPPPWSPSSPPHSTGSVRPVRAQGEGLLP", "test": "SPR BIAcore 8K, 37 C, antibody captured on Protein A chip, IL-34 in solution", "procedure": "(§1) Binding affinity of anti-IL-34 monoclonal antibodies of the present disclosure to human and/or cynomolgus monkey (cyno) IL-34 may be determined by methods known in the art. Briefly, the binding affinity and kinetics of the antibody are evaluated by surface plasmon resonance using BIAcore™ 8K (Cytiva) at 37° C. […] For each cycle, 200 μL IL-34 is flowed over the immobilized antibody at 100 μL/minute, and then dissociated for 20 minutes. The chip surface is regenerated with 50 μL of glycine buffer at pH 1.5 at a flow rate of 100 μL/minute. The data are fit to a 1:1 Langmiur binding mode to derive kon, koff and to calculate KD."}, "cynomolgus monkey IL-34 [2]": {"target": "T2, cynomolgus monkey IL-34 (cynomolgus monkey, UniProt G7Q1L3 21-242)", "T2 construct": "It was biotinylated in the CSF1R displacement ELISA; also called cyno IL-34", "T2 sequence": "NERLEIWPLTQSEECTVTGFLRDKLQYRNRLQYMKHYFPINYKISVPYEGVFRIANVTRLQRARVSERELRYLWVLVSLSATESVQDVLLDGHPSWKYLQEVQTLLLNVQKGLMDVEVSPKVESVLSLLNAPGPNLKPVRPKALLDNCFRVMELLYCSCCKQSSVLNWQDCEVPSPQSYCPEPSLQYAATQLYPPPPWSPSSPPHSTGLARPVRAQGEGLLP", "test": "SPR BIAcore 8K, 37 C, antibody captured on Protein A chip, IL-34 in solution", "procedure": "as §1"}, "human IL-34 [3]": {"target": "T1, human IL-34", "test": "cell-based or functional assay"}, "cynomolgus monkey IL-34 [4]": {"target": "T2, cynomolgus monkey IL-34", "test": "competition ELISA, displacement of biotinylated cyno IL-34 from coated cyno CSF1R ECD-Fc", "procedure": "(§2) CSF1R extracellular domain proteins (hCSF1R_Fc commercially available from R&D Cat #329-MR, cynomolgus CSF1R ECD-Fc (AAA is a linker between CSF1R extracellular domain and Fc) (SEQ ID NO: 34)) can be bound to an ELISA plate at concentrations of 30 nM in order to capture soluble biotinylated IL-34 and allowed to bind for one hour. After washing and blocking plate, biotinylated IL-34 may be added, then detected via streptavidin conjugated peroxidase. Concentrations of labeled IL-34 near the 80% binding level (EC₈₀) (3.7 nM) may be used in conjunction with a range of antibody concentrations (0-100 nM) to determine concentration of antibody required to displace IL-34 from CSF1R. After 1 hr incubation, IL-34 bound to CSF1R is detected via streptavidin conjugated peroxidase. The antibodies are assayed (n=2) and the average and standard deviation at each concentration are calculated. The potency of an antibody to displace IL-34 from CSF1R is reported as IC₅₀ (nM) with the calculated confidence interval (CI) in Table 4 and Table 5."}, "human IL-34 [5]": {"target": "T1, human IL-34", "test": "competition ELISA, displacement of biotinylated human IL-34 from coated hCSF1R_Fc", "procedure": "as §2"}}, "data": [{"binder": "B1", "values": [{"measurement": "Kd", "setting": "human IL-34 [1]", "value": 0.0312, "unit": "nM"}, {"measurement": "koff", "setting": "human IL-34 [1]", "value": 0.00026, "unit": "s⁻¹"}, {"measurement": "kon", "setting": "human IL-34 [1]", "value": "8.4e+06", "unit": "M⁻¹ s⁻¹"}, {"measurement": "Kd", "setting": "cynomolgus monkey IL-34 [2]", "value": 0.0409, "unit": "nM"}, {"measurement": "koff", "setting": "cynomolgus monkey IL-34 [2]", "value": 0.0003, "unit": "s⁻¹"}, {"measurement": "kon", "setting": "cynomolgus monkey IL-34 [2]", "value": "7.9e+06", "unit": "M⁻¹ s⁻¹"}, {"measurement": "IC50 (ug/ml), neutralization of human IL-34 induced luciferase reporter activity", "setting": "human IL-34 [3]", "value": 0.0531, "unit": "µg/mL"}, {"measurement": "IC50", "setting": "cynomolgus monkey IL-34 [4]", "value": 0.975, "unit": "nM"}, {"measurement": "IC50", "setting": "human IL-34 [5]", "value": 0.0274, "unit": "nM"}]}]}
